Measured values reported in article PMC4017264 (Molecular Cell, 2014).
“And” between values parts separate entries of the source, which are not always exact repeats. Identical values can stand only once. One block for each molecule: values may come before it. No end group written: not given here. *: point of attachment. FITC = O=C1OC2(c3ccc(O)cc3Oc3cc(O)ccc32)c2ccc(NC(=S)*)cc21; Ahx = NCCCCCC(=O)O

Experiments:
[1] = target: FITC-Ahx-labeled OTULIN PIM peptide (aa 49–67) (UniProt Q96BN8); assay: fluorescence polarisation; serially diluted PUB domains and HOIP variants mixed with an equal volume of 100 nM FITC-Ahx-labeled peptide; one-site binding model; triplicate
[2] = system: HOIP (Met1-linked polyUb); assay: HOIP autoubiquitination, purification of endogenous Met1-polyUb conjugates (M1-SUB pulldown); format: cell-based; details: U2OS/NOD2 cells, ectopic OTULIN variants, basal, identical with L18-MDP or TNF, immunoblot
From the text: Antibodies and affinity resin
The following antibodies and reagents were used according to the manufacturers’ instructions: anti-HA-agarose resin (A2095), anti-V5-agarose resin (A7345) and rabbit polyclonal anti-HOIP/RNF31 (SAB2102031, Sigma-Aldrich), rat monoclonal anti-HA (#11867423991, Roche Diagnostics, Burgess Hill, UK), mouse monoclonal anti-ubiquitin (IMG-5021, Imgenex, San Diego, CA), rabbit polyclonal anti-SHARPIN (#14626-1-AP, ProteinTech, Chicago, IL), rabbit polyclonal anti-RBCK1/HOIL-1 (NBP1-88301, Novus Biologicals, Littleton, CO), mouse monoclonal anti-V5 (MCA1360, AbD Serotec, Kidlington, UK), mouse monoclonal anti-$-actin (MAB1501, Chemicon, Millipore, Billerica, MA), rabbit polyclonal anti-HOIL-1, rabbit polyclonal anti-HOIP/RNF31
(Sigma), mouse monoclonal anti-p97 (Thermo Scientific). The
Fam105B/OTULIN antibody was previously described (Keusekotten et al., 2013). […]
HEK293ET, RPE1 and U2OS cells were collected, washed with PBS and lysed on ice for 30 minutes in SEC cell extraction buffer (150 mM NaCl, 50 mM Tris-HCl pH 7.4, 1 mM MgCl2, 1 mM DTT, 0.3% NP40, protease and (Roche)). […] In total 3.1 mg protein extract was analyzed on a Superdex 200 10/300 GL column (GE Life Sciences). […]

[3] = target: T1, HOIP PUB domain (aa 5–180) (UniProt Q96EP0 5-180); assay: crystal structure; HOIP 5–180 with OTULIN 49–67, 2.0 Å, space group P 6(1), two molecules in the asymmetric unit; details: both partners purified
T1 construct: HOIP, residues 5-180, PUB domain; also called HOIP 5–180; slightly truncated HOIP PUB domain construct
T1 sequence (looked up): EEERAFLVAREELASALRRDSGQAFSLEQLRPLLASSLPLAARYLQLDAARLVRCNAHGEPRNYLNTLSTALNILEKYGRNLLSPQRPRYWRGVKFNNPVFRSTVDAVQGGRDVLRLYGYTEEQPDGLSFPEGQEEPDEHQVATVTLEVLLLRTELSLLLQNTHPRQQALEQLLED

[4] = target: T2, HOIP extended PUB domain (aa 1–184) (UniProt Q96EP0 1-184); assay: fluorescence polarisation; competition assay: p97 PIM peptide competes with the OTULIN PIM for the HOIP PIM pocket; details: both partners purified
T2 construct: 15N- or 13C,15N-labelled for NMR; Construct details are in the Supplemental Experimental Procedures; also called HOIP PUB domain
T2 sequence (looked up): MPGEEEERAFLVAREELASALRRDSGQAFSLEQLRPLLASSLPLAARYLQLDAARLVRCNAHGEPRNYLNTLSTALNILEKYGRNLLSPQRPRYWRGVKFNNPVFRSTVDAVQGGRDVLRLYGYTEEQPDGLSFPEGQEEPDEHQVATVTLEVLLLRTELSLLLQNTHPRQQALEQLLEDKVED

[5] = target: T3, PNGase PUB domain R55A (UniProt Q96IV0 11-109, Arg55 was mutated to Ala); assay: fluorescence polarisation; serially diluted PUB domains and HOIP variants mixed with an equal volume of 100 nM FITC-Ahx-labeled peptide; one-site binding model; triplicate; details: both partners purified
T3 construct: PNGase PUB domain with Arg55 mutated to Ala; also called PNGase mutant; Arg55 mutated to Ala
T3 sequence (looked up): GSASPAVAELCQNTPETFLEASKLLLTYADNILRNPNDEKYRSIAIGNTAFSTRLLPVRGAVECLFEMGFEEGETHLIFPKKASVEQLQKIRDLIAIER

[6] = target: T4, HOIP PUB domain N101R (UniProt Q96EP0 1-184, N101R); assay: as above; details: both partners purified
T4 construct: HOIP PUB domain with N101R
T4 sequence (looked up): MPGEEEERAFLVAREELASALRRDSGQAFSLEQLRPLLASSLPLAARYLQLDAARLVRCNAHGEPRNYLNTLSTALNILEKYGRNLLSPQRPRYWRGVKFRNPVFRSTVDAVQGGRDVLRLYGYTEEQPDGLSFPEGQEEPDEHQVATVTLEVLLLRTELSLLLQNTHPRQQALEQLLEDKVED

[7] = target: T5, HOIP PUB domain K99R (UniProt Q96EP0 1-184, K99R); assay: as above; details: both partners purified
T5 construct: HOIP PUB domain with K99R
T5 sequence (looked up): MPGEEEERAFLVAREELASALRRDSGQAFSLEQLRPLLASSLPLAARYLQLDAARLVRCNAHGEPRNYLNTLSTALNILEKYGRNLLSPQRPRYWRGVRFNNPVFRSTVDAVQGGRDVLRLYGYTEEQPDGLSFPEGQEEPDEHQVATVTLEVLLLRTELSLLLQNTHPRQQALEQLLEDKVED

[8] = target: T6, HOIP PUB domain (aa 1–184) N85A (UniProt Q96EP0 1-184, N85A); assay: as above; details: both partners purified
T6 sequence (looked up): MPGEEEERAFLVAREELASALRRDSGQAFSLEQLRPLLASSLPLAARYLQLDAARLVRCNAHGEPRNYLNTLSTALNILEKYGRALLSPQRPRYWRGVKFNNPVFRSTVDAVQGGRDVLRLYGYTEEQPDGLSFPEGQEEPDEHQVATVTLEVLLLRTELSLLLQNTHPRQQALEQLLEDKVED

[9] = target: T7, HOIP PUB domain (aa 1–184) V104A (UniProt Q96EP0 1-184, V104A); assay: as above; details: both partners purified
T7 sequence (looked up): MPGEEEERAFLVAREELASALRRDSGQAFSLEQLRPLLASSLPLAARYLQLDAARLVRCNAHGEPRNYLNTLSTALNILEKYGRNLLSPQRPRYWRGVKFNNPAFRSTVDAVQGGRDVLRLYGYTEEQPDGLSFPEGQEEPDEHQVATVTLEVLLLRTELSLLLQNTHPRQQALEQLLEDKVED

[10] = target: T8, HOIP PUB domain (aa 1–184) Y82F (UniProt Q96EP0 1-184, Y82F); assay: as above; details: both partners purified
T8 sequence (looked up): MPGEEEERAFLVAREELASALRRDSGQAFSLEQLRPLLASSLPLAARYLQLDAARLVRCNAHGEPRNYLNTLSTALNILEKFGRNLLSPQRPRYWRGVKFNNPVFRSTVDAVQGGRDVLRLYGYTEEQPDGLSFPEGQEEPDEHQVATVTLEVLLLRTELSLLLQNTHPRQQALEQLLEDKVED

[11] = target: HOIP PUB domain (aa 1–184) N85A (UniProt Q96EP0 1-184, N85A); assay: FP
[12] = target: HOIP PUB domain (aa 1–184) Y82F (UniProt Q96EP0 1-184, Y82F); assay: FP
[13] = target: T2, HOIP extended PUB domain (aa 1–184); assay: fluorescence polarisation; serially diluted PUB domains and HOIP variants mixed with an equal volume of 100 nM FITC-Ahx-labeled peptide; one-site binding model; triplicate; details: both partners purified
[14] = target: T9, UBXD1 PUB domain (aa 150–264) (UniProt Q9BZV1 150-264); assay: as above; details: both partners purified
T9 construct: UBXD1, PUB domain, residues 150-264; also called minimal UBXD1 PUB domain
T9 sequence (looked up): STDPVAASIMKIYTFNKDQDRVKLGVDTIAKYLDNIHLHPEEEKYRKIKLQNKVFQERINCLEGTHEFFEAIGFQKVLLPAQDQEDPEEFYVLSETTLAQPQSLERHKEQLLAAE

[15] = target: T10, PNGase PUB domain (aa 11–109) (UniProt Q96IV0 11-109); assay: as above; details: both partners purified
T10 construct: PNGase (peptide:N-glycanase), PUB domain, residues 11-109
T10 sequence (looked up): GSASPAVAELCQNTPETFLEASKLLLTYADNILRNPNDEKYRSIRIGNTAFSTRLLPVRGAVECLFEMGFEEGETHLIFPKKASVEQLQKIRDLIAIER

Molecule: inactive OTULIN with a mutation in the PIM (Y56A): catalytically inactive OTULIN (C129A) with PIM mutation Y56A
HOIP autoubiquitination with Met1-linked polyUb (in words) [2]: did not lead to HOIP autoubiquitination

B1: unlabeled OTULIN PIM peptide (aa 49–67) (peptide, UniProt Q96BN8 49-67, looked up)
peptide: AEHEEDMYRAADEIEKEKE
notes: OTULIN, residues 49-67; Called unlabeled for NMR; also called OTULIN 49–67
binding result [3]: binds

B2: unlabeled p97 PIM peptide (peptide, UniProt P55072 797-806, looked up)
peptide: TEDNDDDLYG
notes: p97 (VCP) PIM peptide; also called p97 peptide
Ki [4]: 37 µM

The next lines start with the values.

Kd [1]: 0.18 µM
Molecule: HOIP extended PUB domain (aa 1–184) (from UniProt Q96EP0 1-184) (domain or fragment)

Kd [5]: 43 µM | Kd [6]: 0.1 µM | binding result [7]: binds | binding result [8]: binds | binding result [9]: binds | binding result [10]: binds | Kd [11]: 1.04 µM | Kd [12]: 9.38 µM
B3: FITC-Ahx-labeled OTULIN PIM peptide (aa 49–67) (peptide, UniProt Q96BN8 49-67, looked up)
peptide: {FITC-Ahx}-AEHEEDMYRAADEIEKEKE
notes: OTULIN, residues 49-67, holds the EEDMYR motif (residues 52-57); also called OTULIN peptide; wild-type OTULIN PIM peptide

Kd [13]: 7.6 µM and 6 µM | Kd [14]: 12 µM | Kd [6]: 0.9 µM | Kd [15]: 3 µM | binding result [7]: binds
B4: FITC-Ahx-labeled p97 PIM peptide (aa 797–806) (peptide, UniProt P55072 797-806, looked up)
peptide: {FITC-Ahx}-TEDNDDDLYG
notes: p97 (VCP), C-terminal residues 797-806; also called p97 peptide; fluorescent p97 PIM peptide
